# Positions count from the first letter of the chain named.
# T1: recombinant human IL-33 (human, UniProt O95760 112-270, limits assumed)
# T1 sequence (looked up): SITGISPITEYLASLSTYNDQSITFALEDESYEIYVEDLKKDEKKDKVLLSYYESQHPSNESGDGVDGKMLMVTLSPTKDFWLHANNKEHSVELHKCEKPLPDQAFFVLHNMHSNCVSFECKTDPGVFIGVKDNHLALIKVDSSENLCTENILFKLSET
# T2: recombinant human IL-4 (human, UniProt P05112 25-153)
# T2 sequence (looked up): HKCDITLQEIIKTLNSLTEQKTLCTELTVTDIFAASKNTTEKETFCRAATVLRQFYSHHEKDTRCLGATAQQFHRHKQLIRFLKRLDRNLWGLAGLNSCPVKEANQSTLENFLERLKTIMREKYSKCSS
# B1: IL13433-1261 (other)
# heavy: EVQLVESGGGLVQPGGSLRLSCAASGFTFSSYWMYWVRQAPGKGLEWVAAITPNAGEDYYPESVKGRFTISRDNAKNSLYLQMNSLRAEDTAVYYCARGQYYYTKYSLGYWGQGTLVTVSSASTKGPSVFPLAPSSKSTSGGTAALGCLVKDYFPEPVTVSWNSGALTSGVHTFPAVLQSSGLYSLSSVVTVPSSSLGTQTYICNVNHKPSNTKVDKKVEPKSCDKTHTCPPCPAPEAAGAPSVFLFPPKPKDTLMISRTPEVTCVVVDVSHEDPEVKFNWYVDGVEVHNAKTKPREEQYNSTYRVVSVLTVLHQDWLNGKEYKCKVSNKALPAPIEKTISKAKGQPREPQVYTLPPSREEMTKNQVSLTCLVKGFYPSDIAVEWESNGQPENNYKTTPPVLDSDGSFFLYSRLTVDKSRWQQGNVFSCSVLHEALHSHYTQKSLSLSPGK
# chain 1: DIQMTQSPSSLSASVGDRVTITCKASESVDHFGWSLVHWYQQKPGKAPKLLIYRASNLESGVPSRFSGSGSGTDFTLTISSLQPEDFATYYCQQSNEDPWTFGGGTKVEIKRTVAAPSVFIFPPSDEQLKSGTASVVCLLNNFYPREAKVQWKVDNALQSGNSQESVTEQDSKDSTYSLSSTLTLSKADYEKHKVYACEVTHQGLSSPVTKSFNRGECGGGGSEVTLRESGPALVKPTQTLTLTCTFSGFSLSNFGEGLSWIRQPPGKGLEWLAHIYWDDDKRYNPSLKSRLTISKDTSRNQVVLTMTNMDPVDTATYYCARRETVFYWYFDVWGQGTTVTVSSASTKGPSVFPLAPSSKSTSGGTAALGCLVKDYFPEPVTVSWNSGALTSGVHTFPAVLQSSGLYSLSSVVTVPSSSLGTQTYICNVNHKPSNTKVDKKVEPKSCDKTHTCPPCPAPEAAGAPSVFLFPPKPKDTLMISRTPEVTCVVVDVSHEDPEVKFNWYVDGVEVHNAKTKPREEQYNSTYRVVSVLTVLHQDWLNGKEYKCKVSNKALPAPIEKTISKAKGQPREPQVYTLPPSREEMTKNQVSLTCEVKGFYPSDIAVEWESNGQPENNYKTTPPVLDSDGSFFLYSKLTVDKSRWQQGNVFSCSVLHEALHSHYTQKSLSLSPGK
# light 1: DIQMTQSPSSLSASVGDRVTITCRASQPIHNHLDWYQQKPGKAPKLLIYFGKNLQEGVPSRFSGSGSGTDFTLTISSLQPEDFATYYCFQYKKGWSFGGGTKVEIKRTVAAPSVFIFPPSDEQLKSGTASVVCLLNNFYPREAKVQWKVDNALQSGNSQESVTEQDSKDSTYSLSSTLTLSKADYEKHKVYACEVTHQGLSSPVTKSFNRGEC
# light 2: DIQMTQSPSSLSASVGDRVTITCRASQSVDEEGDSYMNWYQQKPGKAPKLLIYAASNLESGVPSRFSGSGSGTDFTLTISSLQPEDFATYYCQQSNKDPPTFGGGTKVEIKRTVAAPSVFIFPPSDEQLKSGTASVVCLLNNFYPREAKVQWKVDNALQSGNSQESVTEQDSKDSTYSLSSTLTLSKADYEKHKVYACEVTHQGLSSPVTKSFNRGEC
# chain 2: EVQLVESGGGLVQPGGSLRLSCAASGFTFSSYAMSWVRQAPGKGLEWVASISSGDTTYYPDSVKGRFTISRDNAKNSLYLQMNSLRAEDTAVYYCARNEGYYFGLTLWGQGTLVTVSSASTKGPSVFPLAPSSKSTSGGTAALGCLVKDYFPEPVTVSWNSGALTSGVHTFPAVLQSSGLYSLSSVVTVPSSSLGTQTYICNVNHKPSNTKVDKKVEPKSC
# B2: IL13433-1270 (other)
# heavy: B1 heavy with L132K, V189S, Y353C, T370W, R413K
# chain 1: B1 chain 1 with L355E, S410G, S581C, T593S, E595A, Y634V
# light 1: B1 light 1 with V132S, S175D
# light 2: B1 light 2 with V137S, S180K
# chain 2: B1 chain 2
# B3: IL13433-1275 (other)
# heavy: B1 heavy with T370W, R413K
# chain 1: B1 chain 1 with T593S, E595A, Y634V
# light 1: B1 light 1
# light 2: B1 light 2
# chain 2: B1 chain 2
# Biological target: T1, recombinant human IL-33
# Assay: cell-based or functional assay
row,"IL-33 WT Activation of SEAP Reporter Cells, potency of cytokine neutralization [nM]",Binder
1,0.021,B1
2,0.012,B2
3,0.013,B3

# Biological target: T2, recombinant human IL-4
# Assay: cell-based or functional assay
row,"IL-4 Induced CD23 Expression, potency of cytokine neutralization [nM]",Binder
1,0.0139,B1
2,0.0165,B2
3,0.0149,B3

# Biological target: recombinant human IL-13 (human, UniProt P35225 35-146)
# Assay: cell-based or functional assay
# recombinant human IL-13, sequence (P35225 35-146 limits assumed): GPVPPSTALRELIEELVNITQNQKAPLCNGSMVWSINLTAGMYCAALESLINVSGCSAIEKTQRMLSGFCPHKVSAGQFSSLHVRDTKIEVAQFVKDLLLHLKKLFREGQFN
row,"IL-13 Induced CD23 Expression, potency of cytokine neutralization [nM]",Binder
1,0.00897,B1
2,0.00758,B2
3,0.00888,B3
